Results on 26 sequences are retold here after patent US20080227700A1, “Compositions and Methods for Treatment of Protein Misfolding and Protein Aggregation Diseases” (priority 2004, published 2008).

The first assay concerns bovine βH crystallin. The assay can be described thus: Protein pin array interaction with βH crystallin. Type of assay: binding. Conditions: unheated βH crystallin; similar maxima with βH crystallin pre-heated at 45° C. for fifteen minutes. From the text: (§1) Synthesis of Pins, binding and detection of peptides binding to ligand proteins. The αB crystallin protein pin array was used to measure the interaction between peptides and chaperone target proteins including bovine βH crystallin, human γD crystallin, equine alcohol dehydrogenase (ADH) and porcine citrate synthase (CS) as described (FIG. 12). Ghosh and Clark, Protein Sci 14: 684-95, 2005.
(§2) Refer to the methods section for detailed protocols. The absorbance corresponding to the blue coloration in each well was measured at λ=450 nm and plotted against the amino acid sequence of the corresponding peptide in that well (FIGS. 13 and 14). Wells containing peptides that have strong interactions with target proteins are dark blue and wells containing peptides that have weak or no interaction with target proteins are light blue or clear.
(§3) The purity of the target proteins used in the pin array assays, bovine βH crystallin, human γD crystallin, equine alcohol dehydrogenase (ADH) and porcine citrate synthase (CS) were determined to be >90% by SDS-PAGE. In addition, primary antibodies for each target protein were specific to that target protein and consequently contaminating proteins that may bind to the peptides will not be detected. Eighty-four sequential and overlapping peptide fragments corresponding to residues 1-175 of human αB crystallin were synthesized employing a simultaneous peptide synthesis strategy developed by Geysen, called Multipin Peptide Synthesis (Mimotopes, San Diego, Calif.). Geysen, Southeast Asian J Trop Med Public Health 21: 523-33, 1990; Chin et al., J Org Chem 62: 538-539, 1997. Peptides were immobilized on derivatized polyethylene pins arranged in a microtiter ELISA plate format. Each peptide was eight amino acids in length and consecutive peptides were offset by two amino acids. All peptides were bound covalently to the surface of the plastic pins. The first peptide was […] for human αB crystallin.
(§4) Ghosh and Clark, Protein Sci 14: 684-95, 2005. […] The intensity of the blue color in the wells was measured at 450 nm using an ELISA plate-reader (BioTek, Winooski, Vt.). The intensity of the blue color (plotted on the X-axis) was a measure of the interaction between αB crystallin peptides (plotted on the Y-axis) and target proteins. To measure the effect of temperature on the interactions between interactive peptides and the target proteins, the target proteins were heated in a water-bath at 45° C. for fifteen minutes prior to use. Pin arrays are unable to differentiate between monomers, dimers or oligomers of target proteins that exist in solution. Instead, pin arrays are very sensitive detectors of interactions between individual peptides and the entire population (monomers, dimers or oligomers) of specific target proteins that may exist in solution under specific conditions. Each target protein was assayed two to five times. A single pin array was used for all experiments and no change in interactions was observed after more than thirty repetitions. The last three peptides of the protein pin array, 163REEKPAVT170, 165EKPAVTAA172, 167PAVTAAPK174, correspond to the epitope (163REEKPAVTAAPKK175) recognized by the primary antibody for human αB crystallin. A positive reaction is observed for these three peptides in the absence of human αB crystallin as the ligand due to direct binding of the anti-human αB crystallin antibody to these three peptides. The loss of efficiency for the pin array was measured using this assay. The loss of efficiency for the pin array was determined to be <5% by after more than 30 assays.
(§5) The amino acid sequences of each 8-mer human αB crystallin peptide immobilized sequentially on 84 pins in a 96-well ELISA plate format are listed on the Y-axis. […]
As for FISREFHR [Peptide 57], the “absorbance at λ=450 nm, interaction with βH crystallin” value (“absorbance … with βH crystallin” for short) is “Maximum absorbances”.

Regarding FYLRPPSF [Peptide 24], the “absorbance … with βH crystallin” value is “Maximum absorbances”.

On to GVLTVNGP [Peptide 71], for which the “absorbance … with βH crystallin” value is recorded as “Maximum absorbances”.

For KYRIPADV [Peptide 61], the “absorbance … with βH crystallin” value was “Maximum absorbances”.

In the case of LKVKVLGD [Peptide 45], the “absorbance … with βH crystallin” value is given as “Maximum absorbances”.

As for PPSFLRAP [Peptide 26], the “absorbance … with βH crystallin” value is recorded as “Maximum absorbances”.

Regarding RLEKDRFS [Peptide 35], the “absorbance … with βH crystallin” value is reported as “Maximum absorbances”.

With RTIPITRE [Peptide 79], the “absorbance … with βH crystallin” value is on record as “Maximum absorbances”.

For the sequence SPFYLRPP [Peptide 23], the “absorbance … with βH crystallin” value is “Maximum absorbances”.

In another assay the target is T1, γD crystallin (Homo sapiens, UniProt P07320).
T1 sequence (P07320 1-174): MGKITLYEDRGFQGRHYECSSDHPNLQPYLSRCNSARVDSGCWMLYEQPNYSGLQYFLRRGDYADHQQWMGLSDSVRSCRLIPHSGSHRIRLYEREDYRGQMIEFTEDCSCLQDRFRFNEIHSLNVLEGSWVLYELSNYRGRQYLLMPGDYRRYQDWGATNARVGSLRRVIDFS
The experiment in a line: Protein pin array interaction with γD crystallin. Format: binding. Set-up: purchased. Conditions: unheated γD crystallin; similar peptide sequences with γD crystallin pre-heated at 45° C. for fifteen minutes.
Excerpt: as §1, §2, §3, §4, §5
For the sequence DQFFGEHL [Peptide 13], the “absorbance at λ=450 nm, interaction with γD crystallin” value (from here on “absorbance … with γD crystallin”) is “maximum absorbances”.

As for EFHRKYRI [Peptide 59], the “absorbance … with γD crystallin” value is given as “maximum absorbances”.

Take FYLRPPSF [Peptide 24]: the “absorbance … with γD crystallin” value was “maximum absorbances”.

As to GVLTVNGP [Peptide 71], the “absorbance … with γD crystallin” value was “maximum absorbances”.

Turning to HGFISREF [Peptide 56], the “absorbance … with γD crystallin” value was “maximum absorbances”.

For the sequence IAIHHPWI [Peptide 2], the “absorbance … with γD crystallin” value is reported as “maximum absorbances”.

Take PFFPFHSP [Peptide 7]: the “absorbance … with γD crystallin” value is reported as “maximum absorbances”.

SFLRAPSW [Peptide 27]: the “absorbance … with γD crystallin” value was “maximum absorbances”.

With SLSPFYLR [Peptide 22], the “absorbance … with γD crystallin” value is “maximum absorbances”.

For another assay, the target named is T2, equine alcohol dehydrogenase (ADH) (Equus caballus, UniProt P00327).
T2 construct: purchased
T2 sequence (P00327 whole entry): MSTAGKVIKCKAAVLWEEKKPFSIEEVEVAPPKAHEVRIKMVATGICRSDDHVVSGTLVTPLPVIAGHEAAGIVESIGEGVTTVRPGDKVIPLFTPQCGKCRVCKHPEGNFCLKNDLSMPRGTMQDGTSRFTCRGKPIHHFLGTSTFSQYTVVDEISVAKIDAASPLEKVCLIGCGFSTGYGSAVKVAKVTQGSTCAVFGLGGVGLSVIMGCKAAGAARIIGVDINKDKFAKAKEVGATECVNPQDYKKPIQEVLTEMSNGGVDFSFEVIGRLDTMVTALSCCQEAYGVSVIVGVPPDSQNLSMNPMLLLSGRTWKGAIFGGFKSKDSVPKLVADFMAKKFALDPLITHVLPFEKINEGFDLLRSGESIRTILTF
The experiment in a line: Protein pin array interaction with alcohol dehydrogenase. Type of assay: binding. To be noted: ADH as ligand, unheated and pre-heated.
Excerpt: as §1, §2, §3, §4
(§6) The Y-axis lists the amino acid sequences of the 8-mer peptides that are immobilized sequentially in a 96-well format. […]
With FFGEHLLE [Peptide 14], the “absorbance at λ=450 nm, interaction with ADH” value (from here on “absorbance … with ADH”) is on record as “Maximum absorbances”.

As to GVLTVNGP [Peptide 71], the “absorbance … with ADH” value is given as “Maximum absorbances”.

In the case of LFPTSTSL [Peptide 19], the “absorbance … with ADH” value was “Maximum absorbances”.

Turning to LRPPSFLR [Peptide 25], the “absorbance … with ADH” value is “Maximum absorbances”.

PFFPFHSP [Peptide 7]: the “absorbance … with ADH” value is “Maximum absorbances”.

With RLEKDRFS [Peptide 35], the “absorbance … with ADH” value was “Maximum absorbances”.

As for RTIPITRE [Peptide 79], the “absorbance … with ADH” value is on record as “Maximum absorbances”.

SLSPFYLR [Peptide 22]: the “absorbance … with ADH” value is given as “Maximum absorbances”.

As to SREFHRKY [Peptide 58], the “absorbance … with ADH” value is given as “Maximum absorbances”.

The next assay concerns the target T3, porcine citrate synthase (CS) (Sus scrofa, UniProt P00889).
T3 construct: purchased
T3 sequence (P00889 28-464): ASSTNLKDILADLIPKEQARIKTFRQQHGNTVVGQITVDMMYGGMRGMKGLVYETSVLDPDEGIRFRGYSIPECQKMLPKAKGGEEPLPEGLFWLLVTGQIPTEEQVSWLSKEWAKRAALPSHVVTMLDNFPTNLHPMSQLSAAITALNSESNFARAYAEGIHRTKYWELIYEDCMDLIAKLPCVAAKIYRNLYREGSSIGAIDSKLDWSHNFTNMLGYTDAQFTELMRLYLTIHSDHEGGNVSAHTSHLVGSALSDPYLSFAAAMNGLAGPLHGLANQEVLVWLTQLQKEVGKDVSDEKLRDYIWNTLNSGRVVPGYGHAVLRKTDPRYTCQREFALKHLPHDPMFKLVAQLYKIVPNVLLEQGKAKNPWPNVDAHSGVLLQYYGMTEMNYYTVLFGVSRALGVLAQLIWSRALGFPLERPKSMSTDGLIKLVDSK
The experiment in a line: Protein pin array interaction with citrate synthase. Format: binding. To be noted: CS as target protein, unheated and pre-heated.
Excerpt: as §1, §2, §3, §4, §6
FISREFHR [Peptide 57]: the “absorbance at λ=450 nm, interaction with CS” value (“absorbance … with CS” below) is “absorbance maxima”.

As to FPFHSPSR [Peptide 8], the “absorbance … with CS” value was “absorbance maxima”.

FYLRPPSF [Peptide 24]: the “absorbance … with CS” value was “absorbance maxima”.

As to LRAPSWFD [Peptide 28], the “absorbance … with CS” value is “absorbance maxima”.

As for LTVNGPRK [Peptide 72], the “absorbance … with CS” value was “absorbance maxima”.

On to RTIPITRE [Peptide 79], for which the “absorbance … with CS” value was “absorbance maxima”.

For the sequence SLSPFYLR [Peptide 22], the “absorbance … with CS” value is recorded as “absorbance maxima”.

The next assay has as its target beta amyloid (Homo sapiens, UniProt P05067). The assay can be described thus: αB crystallin protein pin array screened for binding to beta amyloid. To be noted: immobilized 8-mer peptide; absorption at 450 nm; assayed 2-5 times. From the text:
αB Crystallin peptides that bind the target protein beta-amyloid were identified by screening an αB crystallin protein pin array, which provides a systematic method for evaluating interactions between peptides corresponding to residues 1-175 of human αB crystallin and selected target proteins in a parallel and simultaneous manner.
Peptides were synthesized on derivatized polyethylene pins arranged in a microtiter plate format. Each peptide was 8 amino acids in length and consecutive peptides were offset by 2 amino acids. All peptides were covalently bonded to the surface plastic pins. The first immobilized peptide was 1MDIAIHHP8 and the last peptide was 168PAVTAAPK175 for the human αB crystallin.
After synthesis, the pins were pre-coated at room temperature with 2% Bovine Serum Albumin (BSA), 0.1% Tween-20 and 0.1% Sodium azide in 10 mM phosphate buffered saline pH 7.2 (PBS) for 1 hr, and washed three times for 10 mins each with 10 mM PBS. To screen for binding to the peptides, fixed concentrations of the target protein beta amyloid was dissolved in 10 mM PBS, containing 0.05% Tween-20, added to each well and incubated for 1 hr at room temperature. The pin array was washed three times for 10 mins each with 10 mM PBS, containing 0.05% Tween-20. Monoclonal or polyclonal primary antibodies for the target protein beta amyloid was diluted into PBS buffer, added to each well and incubated for 1 hr at room temperature. Subsequently, the pin array was washed three times for 10 mins each with 10 mM PBS containing 0.05% Tween-20. Anti-rabbit horse-radish peroxidase conjugate secondary antibodies was diluted into PBS buffer, added to each well and incubated for 1 hr at room temperature. The pin array was washed three times for 10 mins each with 10 mM PBS containing 0.05% Tween-20. A chromogenic substrate of horse-radish peroxidase 3,3′,5,5′-Tetramethylbenzidine (TMB) (Pharmingen, San Diego, Calif.) which is colorless was added, and the reaction was carried out for 45 min.
The reaction was stopped by adding 6N sulfuric acid, which changes the color from blue to yellow. The absorption at 450 nm was measured by an ELISA reader (BioTek, Winooski, Vt.).
The pin array was regenerated by sonication in a water bath (VWR Aquasonic, West Chester, Pa.) with 100 mM PBS, containing 1% Sodium dodecyl sulfate (SDS) and 0.1% 2-Mercaptoethanol @ 60° C. for 10 mins. Next, the pin array was rinsed three times in deionized water, preheated to 60° C. for 30 secs each time, and shaken in water preheated at 60° C. for 30 min. The pin array was then washed with methanol at 60° C. for 15 secs and air-dried and stored @−20° C. for future use. Each target protein was assayed 2-5 times against the human αB crystallin protein pin array peptides to verify the reproducibility of the results. Peptides numbered 5, 7, 8, 9, 13, 19, 22, 23, 24, 27, 35, 38, 45, 51, 52, 56, 57, 61, 66, 71, 72, and 79 in Table 2 reproducibly tested positive in the protein pin assay.
As to DQFFGEHL [Peptide 13], the “protein pin assay result with target protein beta amyloid” value (from here on “protein pin assay result”) was “positive”.

Take FHSPSRLF [Peptide 9]: the “protein pin assay result” value is given as “positive”.

As to FISREFHR [Peptide 57], the “protein pin assay result” value is on record as “positive”.

Turning to FPFHSPSR [Peptide 8], the “protein pin assay result” value is given as “positive”.

FYLRPPSF [Peptide 24]: the “protein pin assay result” value is “positive”.

Consider GVLTVNGP [Peptide 71], for which the “protein pin assay result” value was “positive”.

In the case of HGFISREF [Peptide 56], the “protein pin assay result” value is “positive”.

As to HGKHEERQ [Peptide 51], the “protein pin assay result” value is given as “positive”.

On to KHEERQDE [Peptide 52], for which the “protein pin assay result” value is “positive”.

Regarding KYRIPADV [Peptide 61], the “protein pin assay result” value is “positive”.

As for LFPTSTSL [Peptide 19], the “protein pin assay result” value is “positive”.

Consider LKVKVLGD [Peptide 45], for which the “protein pin assay result” value is given as “positive”.

LTVNGPRK [Peptide 72]: the “protein pin assay result” value is on record as “positive”.

For the sequence PFFPFHSP [Peptide 7], the “protein pin assay result” value is given as “positive”.

Turning to RLEKDRFS [Peptide 35], the “protein pin assay result” value is listed as “positive”.

As to RTIPITRE [Peptide 79], the “protein pin assay result” value was “positive”.

For the sequence SFLRAPSW [Peptide 27], the “protein pin assay result” value was “positive”.

SLSPFYLR [Peptide 22]: the “protein pin assay result” value was “positive”.

As to SPFYLRPP [Peptide 23], the “protein pin assay result” value is on record as “positive”.
